Assay results reported in patent US20170233492A1 (PHARMABCINE, published 2017).

Legend:
[1] = target: T1, mouse c-Met-Fc (mouse, UniProt P16056 25-931, limits assumed); test: SPR (BIAcore), mouse c-Met-Fc immobilized on chip, antibody flowed; koff/kon
T1 construct: Bought reagent (R&D system); also called mouse-c-Met (R&D system); not shown: Fc part
Method: (§1) The binding capacity to c-Met of the antibody was measured by BIAcore (GE Healthcare). According to the manufacturer's manual, sensorgrams were secured by immobilizing mouse-c-Met and human-c-Met (R&D system) on a CMS chip (GE Healthcare, Sweden), and flowing various amounts of antibodies. Rate constants kon and koff were measured on the basis of the sensorgrams secured at each concentration, and Kd was calculated from the ratio of rate constants (koff/kon) (Table 3). As a result, 1E4-IgG had high binding capacity with mouse-c-Met as well as binding capacity with human-c-Met (FIG. 8).

[2] = target: T2, Recombinant human HGF R/c-Met Fc chimera (R&D systems, cat no. 358-MT/CF) (human, UniProt P08581 25-932); test: SPR (BIAcore), human c-Met-Fc immobilized on chip, antibody flowed
T2 construct: Bought reagent; also called human c-Met-Fc; human-c-Met; not shown: Fc part of the purchased chimera
T2 sequence (P08581 25-932, change not shown): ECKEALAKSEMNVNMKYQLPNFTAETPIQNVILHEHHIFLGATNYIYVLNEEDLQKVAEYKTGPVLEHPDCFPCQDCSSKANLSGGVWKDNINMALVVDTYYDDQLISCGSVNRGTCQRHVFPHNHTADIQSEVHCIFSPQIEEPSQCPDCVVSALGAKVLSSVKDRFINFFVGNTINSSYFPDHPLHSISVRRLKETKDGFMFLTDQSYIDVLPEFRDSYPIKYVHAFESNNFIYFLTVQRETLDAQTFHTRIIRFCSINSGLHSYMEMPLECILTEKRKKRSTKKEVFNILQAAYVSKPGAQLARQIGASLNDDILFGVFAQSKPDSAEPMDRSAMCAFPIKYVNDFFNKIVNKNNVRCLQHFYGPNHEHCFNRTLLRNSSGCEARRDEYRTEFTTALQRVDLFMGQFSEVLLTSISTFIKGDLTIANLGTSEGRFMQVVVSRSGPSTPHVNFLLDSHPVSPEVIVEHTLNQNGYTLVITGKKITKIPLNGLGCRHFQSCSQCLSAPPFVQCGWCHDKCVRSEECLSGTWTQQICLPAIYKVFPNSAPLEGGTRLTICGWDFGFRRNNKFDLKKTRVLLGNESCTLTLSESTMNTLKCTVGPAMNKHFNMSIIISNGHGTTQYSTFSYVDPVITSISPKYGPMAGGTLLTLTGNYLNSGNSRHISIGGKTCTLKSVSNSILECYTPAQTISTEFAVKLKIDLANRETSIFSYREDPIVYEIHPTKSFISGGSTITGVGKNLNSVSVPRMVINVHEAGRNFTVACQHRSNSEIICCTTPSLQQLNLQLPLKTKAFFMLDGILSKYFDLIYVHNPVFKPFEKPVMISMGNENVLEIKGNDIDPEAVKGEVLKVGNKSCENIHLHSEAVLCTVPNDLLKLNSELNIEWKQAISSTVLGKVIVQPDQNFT
Method: as §1

[3] = target: T1, mouse c-Met-Fc; test: SPR (BIAcore), mouse c-Met-Fc immobilized on chip, antibody flowed
Method: as §1

[4] = target: T2, Recombinant human HGF R/c-Met Fc …; test: SPR (BIAcore), human c-Met-Fc immobilized on chip, antibody flowed; koff/kon
Method: as §1

[5] = target: T2, Recombinant human HGF R/c-Met Fc …; test: phage ELISA, c-Met 100 ng coated, anti-M13-HRP detection, A450

T1 sequence (P16056 25-931 limits assumed): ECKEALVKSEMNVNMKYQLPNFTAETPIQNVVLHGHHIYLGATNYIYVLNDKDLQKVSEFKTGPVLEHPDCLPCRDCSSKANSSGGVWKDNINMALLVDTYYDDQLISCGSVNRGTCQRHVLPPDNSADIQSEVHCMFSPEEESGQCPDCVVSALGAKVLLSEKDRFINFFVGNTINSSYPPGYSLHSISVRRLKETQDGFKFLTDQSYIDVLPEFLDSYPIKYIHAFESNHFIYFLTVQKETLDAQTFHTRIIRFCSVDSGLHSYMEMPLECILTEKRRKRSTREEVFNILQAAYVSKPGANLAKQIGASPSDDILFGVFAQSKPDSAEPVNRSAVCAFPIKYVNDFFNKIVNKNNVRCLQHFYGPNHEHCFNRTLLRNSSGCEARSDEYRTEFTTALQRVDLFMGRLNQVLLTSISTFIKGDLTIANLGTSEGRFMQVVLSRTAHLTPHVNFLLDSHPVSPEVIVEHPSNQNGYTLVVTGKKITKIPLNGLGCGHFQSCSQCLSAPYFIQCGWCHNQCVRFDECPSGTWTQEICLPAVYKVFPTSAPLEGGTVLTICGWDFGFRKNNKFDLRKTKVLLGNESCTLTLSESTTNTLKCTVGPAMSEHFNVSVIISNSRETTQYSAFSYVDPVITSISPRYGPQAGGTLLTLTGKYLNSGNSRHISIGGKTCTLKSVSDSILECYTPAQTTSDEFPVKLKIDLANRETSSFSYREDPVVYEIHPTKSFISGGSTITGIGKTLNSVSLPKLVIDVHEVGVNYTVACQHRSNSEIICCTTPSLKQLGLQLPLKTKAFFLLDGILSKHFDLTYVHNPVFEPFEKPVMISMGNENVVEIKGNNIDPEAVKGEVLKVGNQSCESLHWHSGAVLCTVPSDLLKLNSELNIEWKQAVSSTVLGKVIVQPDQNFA

Binder | Kd [1] | koff [2] | kon [2] | koff [3] | kon [3] | Kd [4] | binding result [5]
1E4-IgG (antibody, V domains shown, also called 1E4 antibody; anti-c-Met IgG (1E4-IgG)) VH: QVQLVQSGAEVKKPGESLRISCQGSGYSFPTHWITWVRQMPGKGLEWMGTIDPTDSYNFYGPSFQGHVTISADSSSSTAYLQWSSLKASDTAMYYCARDGNYYDSRGYYYDTFDMWGQGTLVTVSS VL: DIQMTQSPSFLSASVGDRVTITCRASQGISTYLAWYQQKPGTAPKLLIYSASTLESGVPSRFSGSGSGTDFTLTISSLQPEDSATYYCQQADSFPLTFGGGTKVEIKR | 0.615 nM | 0.000807 s⁻¹ | 2.71e+06 M⁻¹ s⁻¹ | 0.00159 s⁻¹ | 2.58e+06 M⁻¹ s⁻¹ | 0.298 nM | 
1E4-ScFv (scFv, also called soluble 1E4-ScFv; not shown: tags implied by Ni-NTA purification and anti-Myc detection) scFv: QVQLVQSGAEVKKPGESLRISCQGSGYSFPTHWITWVRQMPGKGLEWMGTIDPTDSYNFYGPSFQGHVTISADSSSSTAYLQWSSLKASDTAMYYCARDGNYYDSRGYYYDTFDMWGQGTLVTVSSGLGGLGGGGSGGGGSGGSSGVGSDIQMTQSPSFLSASVGDRVTITCRASQGISTYLAWYQQKPGTAPKLLIYSASTLESGVPSRFSGSGSGTDFTLTISSLQPEDSATYYCQQADSFPLTFGGGTKVEIKRGGASLVE |  |  |  |  |  |  | binds
